Each block holds one substance with its values, some of them ahead of it.
Tests used:
Experiment in all cases: cell-based or functional assay
[1] = target: Anti-EGFR Activatable Antibody C225v5-3954-4008 (linker form not stated)
[2] = target: Anti-EGFR Activatable Antibody c225v5-3954-2001
[3] = target: Anti-EGFR Activatable Antibody c225v5-3954-3001
[4] = target: Anti-EGFR Activatable Antibody c225v5-3954-5006; for Cleavability (%) MMP14: test concentration or dose not given here; for Cleavability (%) Neutrophil Elastase: test concentration or dose not given here
[5] = target: Anti-EGFR Activatable Antibody c225v5-3954-5007; for Cleavability (%) Matriptase: test concentration or dose not given here; for Cleavability (%) Neutrophil Elastase: test concentration or dose not given here
[6] = target: Anti-EGFR Activatable Antibody c225v5-3954-5011
[7] = target: Anti-EGFR Activatable Antibody c225v5-3954-5013; for Cleavability (%) Matriptase: test concentration or dose not given here
[8] = target: Anti-EGFR Activatable Antibody with substrate 4001 (linker form not stated); for Cleavability (%) MMP14: test concentration or dose not given here
[9] = target: Anti-EGFR Activatable Antibody c225v5-3954-4001LL; for MMP14 Cleavability (%): test concentration or dose not given here
[10] = target: Anti-EGFR Activatable Antibody c225v5-3954-4001SL
[11] = target: Anti-EGFR Activatable Antibody c225v5-3954-4002SL
[12] = target: Anti-EGFR Activatable Antibody c225v5-3954-4003SL
[13] = target: Anti-EGFR Activatable Antibody c225v5-3954-4004LL
[14] = target: Anti-EGFR Activatable Antibody c225v5-3954-4005SL; for MMP14 Cleavability (%): test concentration or dose not given here
[15] = target: Anti-EGFR Activatable Antibody c225v5-3954-4006LL; for MMP14 Cleavability (%): test concentration or dose not given here
[16] = target: Anti-EGFR Activatable Antibody c225v5-3954-4006SL
[17] = target: Anti-EGFR Activatable Antibody c225v5-3954-4007SL
[18] = target: Anti-EGFR Activatable Antibody c225v5-3954-4008LL
[19] = target: Anti-EGFR Activatable Antibody c225v5-3954-4009SL
[20] = target: Anti-EGFR Activatable Antibody c225v5-3954-4010SL
[21] = target: Anti-EGFR Activatable Antibody c225v5-3954-4011SL
[22] = target: Anti-EGFR Activatable Antibody c225v5-3954-4012SL
[23] = target: Anti-EGFR Activatable Antibody c225v5-3954-4014SL; for MMP14 Cleavability (%): test concentration or dose not given here
[24] = target: Anti-EGFR Activatable Antibody c225v5-3954-4015LL
[25] = target: Anti-EGFR Activatable Antibody c225v5-3954-5001; for Cleavability (%) MMP14: test concentration or dose not given here; for Cleavability (%) Matriptase: test concentration or dose not given here
[26] = target: Anti-EGFR Activatable Antibody c225v5-3954-5002; for Cleavability (%) Neutrophil Elastase: test concentration or dose not given here
[27] = target: Anti-EGFR Activatable Antibody c225v5-3954-5003; for Cleavability (%) MMP14: test concentration or dose not given here
[28] = target: Anti-EGFR Activatable Antibody c225v5-3954-5004
[29] = target: Anti-EGFR Activatable Antibody c225v5-3954-5005
[30] = target: Anti-EGFR Activatable Antibody c225v5-3954-5008; for Cleavability (%) Matriptase: test concentration or dose not given here; for Cleavability (%) Neutrophil Elastase: test concentration or dose not given here
[31] = target: Anti-EGFR Activatable Antibody c225v5-3954-5009
[32] = target: Anti-EGFR Activatable Antibody c225v5-3954-5010
[33] = target: Anti-EGFR Activatable Antibody c225v5-3954-5012

recombinant MMP2, sequence (P08253 110-660 limits assumed): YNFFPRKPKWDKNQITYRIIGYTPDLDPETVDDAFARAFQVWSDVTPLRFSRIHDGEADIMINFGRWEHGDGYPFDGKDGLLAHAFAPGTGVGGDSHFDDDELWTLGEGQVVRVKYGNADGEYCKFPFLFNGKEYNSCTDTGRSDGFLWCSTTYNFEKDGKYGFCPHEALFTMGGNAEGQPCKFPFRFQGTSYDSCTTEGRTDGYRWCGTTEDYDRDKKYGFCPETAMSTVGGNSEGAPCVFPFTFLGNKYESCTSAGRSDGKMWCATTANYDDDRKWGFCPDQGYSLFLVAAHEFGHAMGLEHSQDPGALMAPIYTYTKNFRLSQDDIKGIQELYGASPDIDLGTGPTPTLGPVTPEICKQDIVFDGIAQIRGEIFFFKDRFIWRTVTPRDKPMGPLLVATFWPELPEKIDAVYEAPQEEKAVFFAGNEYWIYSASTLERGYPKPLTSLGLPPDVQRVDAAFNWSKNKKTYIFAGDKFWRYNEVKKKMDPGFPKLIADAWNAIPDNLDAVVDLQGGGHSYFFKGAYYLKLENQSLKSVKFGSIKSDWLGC
recombinant matriptase, sequence (Q9Y5Y6 615-855 limits assumed): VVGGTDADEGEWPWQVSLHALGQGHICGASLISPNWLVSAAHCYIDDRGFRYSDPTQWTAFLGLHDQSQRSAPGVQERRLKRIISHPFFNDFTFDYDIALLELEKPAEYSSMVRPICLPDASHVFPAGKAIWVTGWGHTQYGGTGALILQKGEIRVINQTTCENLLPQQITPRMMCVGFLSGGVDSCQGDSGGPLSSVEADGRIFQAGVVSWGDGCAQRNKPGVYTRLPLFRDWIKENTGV
recombinant neutrophil elastase, sequence (P08246 30-267 limits assumed): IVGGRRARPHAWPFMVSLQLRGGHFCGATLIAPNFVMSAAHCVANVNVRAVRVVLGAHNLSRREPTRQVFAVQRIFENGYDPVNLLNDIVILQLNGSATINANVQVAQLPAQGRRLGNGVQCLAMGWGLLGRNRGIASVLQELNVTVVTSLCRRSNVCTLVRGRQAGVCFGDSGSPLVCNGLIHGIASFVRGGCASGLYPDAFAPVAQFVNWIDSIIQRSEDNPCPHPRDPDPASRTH

Substance: recombinant MMP14 (from UniProt P50281 112-538) (enzyme)
Cleavability (%) MMP14 [1]: 6% | Kcat/Km (M^-1 s^-1) MMP14 [1]: 230 M⁻¹ s⁻¹ | Cleavability (%) MMP14 [2]: 58% | Kcat/Km (M^-1 s^-1) MMP14 [2]: 6330 M⁻¹ s⁻¹ | Kcat/Km (M^-1 s^-1) MMP14 [3]: 17000 M⁻¹ s⁻¹ | MMP14 Cleavability (%) [9]: 100% | MMP14 Cleavability (%) [10]: 96.5% | MMP14 Cleavability (%) [11]: 85.9% | MMP14 Cleavability (%) [12]: 53.1% | MMP14 Cleavability (%) [13]: 46.2% | MMP14 Cleavability (%) [14]: 24.4% | MMP14 Cleavability (%) [15]: 84.2% | MMP14 Cleavability (%) [16]: 85.7% | MMP14 Cleavability (%) [17]: 0% | MMP14 Cleavability (%) [18]: 0% | MMP14 Cleavability (%) [19]: 0% | MMP14 Cleavability (%) [20]: 0% | MMP14 Cleavability (%) [21]: 9.9% | MMP14 Cleavability (%) [22]: 0% | MMP14 Cleavability (%) [23]: 30.5% | MMP14 Cleavability (%) [24]: 0% | Cleavability (%) MMP14 [25]: 76% | Cleavability (%) MMP14 [26]: 58% | Cleavability (%) MMP14 [27]: 20% | Cleavability (%) MMP14 [28]: 19% | Cleavability (%) MMP14 [29]: 34% | Cleavability (%) MMP14 [4]: 6% | Kcat/Km (M^-1 s^-1) MMP14 [4]: 564 M⁻¹ s⁻¹ | Cleavability (%) MMP14 [5]: 90% | Kcat/Km (M^-1 s^-1) MMP14 [5]: 9250 M⁻¹ s⁻¹ | Cleavability (%) MMP14 [30]: 55% | Cleavability (%) MMP14 [31]: 9% | Cleavability (%) MMP14 [32]: 11% | Cleavability (%) MMP14 [6]: 7% | Kcat/Km (M^-1 s^-1) MMP14 [6]: 444 M⁻¹ s⁻¹ | Cleavability (%) MMP14 [33]: 72% | Cleavability (%) MMP14 [7]: 78% | Kcat/Km (M^-1 s^-1) MMP14 [7]: 7770 M⁻¹ s⁻¹ | Cleavability (%) MMP14 [8]: 77% | Kcat/Km (M^-1 s^-1) MMP14 [8]: 6010 M⁻¹ s⁻¹

Substance: recombinant legumain (from UniProt Q99538 18-323) (enzyme)
Cleavability (%) Legumain [1]: 0% | Cleavability (%) Legumain [2]: 5% | Cleavability (%) Legumain [3]: 0% | Cleavability (%) Legumain [25]: 0% | Cleavability (%) Legumain [26]: 21% | Cleavability (%) Legumain [27]: 0% | Cleavability (%) Legumain [28]: 27% | Cleavability (%) Legumain [29]: 0% | Cleavability (%) Legumain [4]: 0% | Cleavability (%) Legumain [5]: 0% | Cleavability (%) Legumain [30]: 0% | Cleavability (%) Legumain [31]: 0% | Cleavability (%) Legumain [32]: 0% | Cleavability (%) Legumain [6]: 0% | Cleavability (%) Legumain [33]: 7% | Cleavability (%) Legumain [7]: 9% | Cleavability (%) Legumain [8]: 0%

Substance: recombinant matriptase (from UniProt Q9Y5Y6 615-855) (enzyme)
Cleavability (%) Matriptase [1]: 40% | Kcat/Km (M^-1 s^-1) Matriptase [1]: 476 M⁻¹ s⁻¹ | Cleavability (%) Matriptase [2]: 53% | Kcat/Km (M^-1 s^-1) Matriptase [2]: 2550 M⁻¹ s⁻¹ | Kcat/Km (M^-1 s^-1) Matriptase [3]: 5350 M⁻¹ s⁻¹ | Cleavability (%) Matriptase [25]: 100% | Cleavability (%) Matriptase [26]: 100% | Cleavability (%) Matriptase [27]: 99% | Cleavability (%) Matriptase [28]: 75% | Cleavability (%) Matriptase [29]: 6% | Cleavability (%) Matriptase [4]: 100% | Kcat/Km (M^-1 s^-1) Matriptase [4]: 5370 M⁻¹ s⁻¹ | Cleavability (%) Matriptase [5]: 100% | Kcat/Km (M^-1 s^-1) Matriptase [5]: 27200 M⁻¹ s⁻¹ | Cleavability (%) Matriptase [30]: 98% | Cleavability (%) Matriptase [31]: 100% | Cleavability (%) Matriptase [32]: 0% | Cleavability (%) Matriptase [6]: 80% | Kcat/Km (M^-1 s^-1) Matriptase [6]: 1430 M⁻¹ s⁻¹ | Cleavability (%) Matriptase [33]: 0% | Cleavability (%) Matriptase [7]: 0% | Kcat/Km (M^-1 s^-1) Matriptase [7]: 0 M⁻¹ s⁻¹ | Cleavability (%) Matriptase [8]: 0% | Kcat/Km (M^-1 s^-1) Matriptase [8]: 0 M⁻¹ s⁻¹

Substance: recombinant neutrophil elastase (from UniProt P08246 30-267) (enzyme)
Cleavability (%) Neutrophil Elastase [1]: 28% | Cleavability (%) Neutrophil Elastase [2]: 18% | Kcat/Km (M^-1 s^-1) Neutrophil Elastase [2]: 3170 M⁻¹ s⁻¹ | Cleavability (%) Neutrophil Elastase [3]: 52% | Kcat/Km (M^-1 s^-1) Neutrophil Elastase [3]: 19100 M⁻¹ s⁻¹ | Cleavability (%) Neutrophil Elastase [25]: 88% | Cleavability (%) Neutrophil Elastase [26]: 67% | Cleavability (%) Neutrophil Elastase [27]: 77% | Cleavability (%) Neutrophil Elastase [28]: 84% | Cleavability (%) Neutrophil Elastase [29]: 81% | Cleavability (%) Neutrophil Elastase [4]: 30% | Cleavability (%) Neutrophil Elastase [5]: 74% | Kcat/Km (M^-1 s^-1) Neutrophil Elastase [5]: 24200 M⁻¹ s⁻¹ | Cleavability (%) Neutrophil Elastase [30]: 66% | Cleavability (%) Neutrophil Elastase [31]: 31% | Cleavability (%) Neutrophil Elastase [32]: 100% | Cleavability (%) Neutrophil Elastase [6]: 100% | Kcat/Km (M^-1 s^-1) Neutrophil Elastase [6]: 665000 M⁻¹ s⁻¹ | Cleavability (%) Neutrophil Elastase [33]: 55% | Cleavability (%) Neutrophil Elastase [7]: 56% | Cleavability (%) Neutrophil Elastase [8]: 37%

Further lines, results first:

Kcat/Km (M^-1 s^-1) MMP2 [1]: 13000 M⁻¹ s⁻¹ | Kcat/Km (M^-1 s^-1) MMP2 [2]: 13200 M⁻¹ s⁻¹ | Kcat/Km (M^-1 s^-1) MMP2 [3]: 310000 M⁻¹ s⁻¹ | Kcat/Km (M^-1 s^-1) MMP2 [4]: 36900 M⁻¹ s⁻¹ | Kcat/Km (M^-1 s^-1) MMP2 [5]: 98300 M⁻¹ s⁻¹ | Kcat/Km (M^-1 s^-1) MMP2 [6]: 3380 M⁻¹ s⁻¹ | Kcat/Km (M^-1 s^-1) MMP2 [7]: 76500 M⁻¹ s⁻¹ | Kcat/Km (M^-1 s^-1) MMP2 [8]: 57600 M⁻¹ s⁻¹
Substance: recombinant MMP2 (from UniProt P08253 110-660) (enzyme)

Cleavability (%) MMP9 [1]: 100% | Kcat/Km (M^-1 s^-1) MMP9 [1]: 18700 M⁻¹ s⁻¹ | Cleavability (%) MMP9 [2]: 22% | Kcat/Km (M^-1 s^-1) MMP9 [2]: 394 M⁻¹ s⁻¹ | Kcat/Km (M^-1 s^-1) MMP9 [3]: 50500 M⁻¹ s⁻¹ | MMP9 Cleavability (%) [9]: 100% | MMP9 Cleavability (%) [10]: 94.5% | MMP9 Cleavability (%) [11]: 87.5% | MMP9 Cleavability (%) [12]: 6% | MMP9 Cleavability (%) [13]: 29.8% | MMP9 Cleavability (%) [14]: 70.5% | MMP9 Cleavability (%) [15]: 90.8% | MMP9 Cleavability (%) [16]: 92.9% | MMP9 Cleavability (%) [17]: 69.5% | MMP9 Cleavability (%) [18]: 55.2% | MMP9 Cleavability (%) [19]: 22.1% | MMP9 Cleavability (%) [20]: 18% | MMP9 Cleavability (%) [21]: 78.8% | MMP9 Cleavability (%) [22]: 56.5% | MMP9 Cleavability (%) [23]: 0% | MMP9 Cleavability (%) [24]: 90% | Cleavability (%) MMP9 [25]: 76% | Cleavability (%) MMP9 [26]: 37% | Cleavability (%) MMP9 [27]: 100% | Cleavability (%) MMP9 [28]: 86% | Cleavability (%) MMP9 [29]: 72% | Cleavability (%) MMP9 [4]: 81% | Kcat/Km (M^-1 s^-1) MMP9 [4]: 33900 M⁻¹ s⁻¹ | Cleavability (%) MMP9 [5]: 77% | Kcat/Km (M^-1 s^-1) MMP9 [5]: 25300 M⁻¹ s⁻¹ | Cleavability (%) MMP9 [30]: 100% | Cleavability (%) MMP9 [31]: 78% | Cleavability (%) MMP9 [32]: 0% | Cleavability (%) MMP9 [6]: 55% | Kcat/Km (M^-1 s^-1) MMP9 [6]: 4180 M⁻¹ s⁻¹ | Cleavability (%) MMP9 [33]: 52% | Cleavability (%) MMP9 [7]: 62% | Kcat/Km (M^-1 s^-1) MMP9 [7]: 10400 M⁻¹ s⁻¹ | Cleavability (%) MMP9 [8]: 100% | Kcat/Km (M^-1 s^-1) MMP9 [8]: 8840 M⁻¹ s⁻¹
Substance: recombinant MMP9 (from UniProt P14780 107-707) (enzyme)

Reference: patent US20260152562A1
